Measured values as given in patent US7662384B2, “Use of anti-α5β1 antibodies to inhibit cancer cell proliferation” (Facet Biotech Corporation, priority 2004, dated 2010).

Legend:
mouse α5β1 integrin = mouse α5β1 integrin (Mus musculus, UniProt P09055+P11688); experiment: species cross-reactivity of anti-α5β1 antibody; assay type: binding
NW231 cells = experiment: NW231 orthotopic xenograft in SCID mice; assay type: in vivo; details: 10 mg/kg intraperitoneally, 3 times/week for 3 weeks
Protocol: (§1) NW231 and LOX cells were grown as orthotopic xenografts in SCID mice and challenged with the anti-α5β1 antibodies M200 and IIA1 by intraperitoneal injection.
(§2) Immune compromised mice CB-17 SCID (strain C.B-Igh1/IcrTac-Prkdc) were obtained from Taconic Farms (Germantown, N.Y.). Studies were initiated using female mice between the ages of 6-10 weeks (˜20 grams in weight). Animals were pre-dosed with M200, IIA1 or control IgG intraperitoneally at a dose of 10 mg/kg 1 hour prior to NW231 inoculation (1×10^7 cells in IMDM) into the mammary fat pad. Dosing continued for 3 weeks at a frequency of 3 times/week at 10 mg/kg. Tumor volume was measured twice weekly by caliper and calculated by π/6×length×width×height. Clinical and mortality observations were performed daily according to IACUC regulations.

VX2 cancer cells = experiment: SCID mouse VX2 xenograft model; assay type: in vivo; details: SCID mice; 10 mg/kg intraperitoneally, 3 times/week for 3 weeks
Protocol: as §2, with “M200, IIA1,” for “M200, IIA1”, “mg/kg one” for “mg/kg 1”, “to VX2” for “to NW231”, “in Iscove's Modified Dulbecco's Medium)” for “in IMDM)”, “Dosing was” for “Dosing”

LOX cells = experiment: LOX orthotopic xenograft in SCID mice; assay type: in vivo; details: 10 mg/kg intraperitoneally, 3 times/week for 3 weeks
Protocol: as §1, §2

[1] = test system: activated endothelial cells; details: regardless of the growth factor stimulus; cited from earlier work
NW231 = experiment: M200 in vitro cell proliferation assay; assay type: cell-based, human; details: NW231 (breast)
Protocol: (§3) Cancer cell lines were plated at a density of 2500 cells/well in 96-well plates in IMDM with supplements in the presence or absence of 10% FBS. At the time of plating, cells were challenged with various concentrations M200 or a non-function blocking anti-α5 antibody, VC5. […] All growth studies were done at least 3 times in triplicate.

angiogenesis = details: monkey eye model; cited from earlier work
[2] = pharmacokinetic studies in cynomolgus monkeys; assay type: in vivo
[3] = predicted human serum levels of M200 from monkey PK data; parameters: species or system humans
Protocol: At the highest dose in humans (15.0 mg/kg), the mean peak after 5 doses was predicted to be 592 μg/mL with the range of variability in humans predicted as 320 to 829 μg/mL. Table 3, was compiled using PK data from the monkey studies to predict the peak and tough serum concentrations (Cmax and Cmin, respectively) for each dose at each dose level in humans.

[4] = Phase I dose-escalation study: pharmacokinetics (serum ELISA)
Protocol: The serum for measuring M200 concentrations was obtained immediately before and after the first dose, and at 4, 24, 48, and 168 hours after completion of the first dose. Serum samples for measuring M200 concentrations were also taken immediately before, at the end, and 4 hours after the completion of each subsequent infusion. These samples were split and aliquots assayed before the next dose and again at the end of the study: end of 1st dose, 168 hours after 1st dose, immediately pre-dose (trough) and immediately post-dose (peak) for the 2nd, 3rd, 4th and 5th doses. The serum levels of M200 were measured by ELISA.
The plasma concentration-time data of M200 from each patient was subjected to a PK analysis. The following parameters were included in the calculations: peak (Cmax) and trough (Cmin) levels, terminal phase half-life (T1/2 β), area under the plasma-concentration time curve (AUC), elimination clearance (CL), and volume of distribution (V). Summary parameters were computed across patients from each treatment group. Changes in the PK parameters as a function of dose and time were also evaluated.

LOX = experiment: M200 in vitro cell proliferation assay; assay type: cell-based; details: LOX (melanoma)
Protocol: as §3

[5] = absence of serum, 2-day rather than 4-day assay

mouse α5β1 integrin, sequence (P11688 45-1053): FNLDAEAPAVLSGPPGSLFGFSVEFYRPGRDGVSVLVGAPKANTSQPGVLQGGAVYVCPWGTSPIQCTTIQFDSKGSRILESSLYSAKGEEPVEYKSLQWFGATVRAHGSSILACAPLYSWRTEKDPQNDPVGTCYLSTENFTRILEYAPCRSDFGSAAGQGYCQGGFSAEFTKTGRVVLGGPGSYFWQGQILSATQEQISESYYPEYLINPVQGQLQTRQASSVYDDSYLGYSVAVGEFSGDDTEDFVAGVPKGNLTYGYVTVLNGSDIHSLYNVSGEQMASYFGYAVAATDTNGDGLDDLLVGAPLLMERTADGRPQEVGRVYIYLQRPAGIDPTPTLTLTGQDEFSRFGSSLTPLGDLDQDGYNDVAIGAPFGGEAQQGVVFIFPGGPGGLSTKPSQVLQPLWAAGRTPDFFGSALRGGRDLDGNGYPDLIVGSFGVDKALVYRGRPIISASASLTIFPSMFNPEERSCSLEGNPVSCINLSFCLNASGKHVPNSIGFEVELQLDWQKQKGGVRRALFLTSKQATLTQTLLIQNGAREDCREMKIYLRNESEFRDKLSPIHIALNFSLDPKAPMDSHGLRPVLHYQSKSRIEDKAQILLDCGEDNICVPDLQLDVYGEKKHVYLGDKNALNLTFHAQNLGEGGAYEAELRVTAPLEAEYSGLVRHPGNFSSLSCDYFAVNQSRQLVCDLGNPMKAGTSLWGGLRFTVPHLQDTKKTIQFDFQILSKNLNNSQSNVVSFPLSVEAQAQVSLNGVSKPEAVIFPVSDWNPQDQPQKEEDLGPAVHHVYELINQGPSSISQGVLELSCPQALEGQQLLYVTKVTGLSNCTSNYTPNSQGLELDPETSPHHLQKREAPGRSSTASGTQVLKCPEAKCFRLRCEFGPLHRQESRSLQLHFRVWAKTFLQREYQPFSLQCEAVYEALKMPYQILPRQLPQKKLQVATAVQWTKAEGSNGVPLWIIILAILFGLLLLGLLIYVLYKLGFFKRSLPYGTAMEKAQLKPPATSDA
mouse α5β1 integrin, sequence (P09055 21-798): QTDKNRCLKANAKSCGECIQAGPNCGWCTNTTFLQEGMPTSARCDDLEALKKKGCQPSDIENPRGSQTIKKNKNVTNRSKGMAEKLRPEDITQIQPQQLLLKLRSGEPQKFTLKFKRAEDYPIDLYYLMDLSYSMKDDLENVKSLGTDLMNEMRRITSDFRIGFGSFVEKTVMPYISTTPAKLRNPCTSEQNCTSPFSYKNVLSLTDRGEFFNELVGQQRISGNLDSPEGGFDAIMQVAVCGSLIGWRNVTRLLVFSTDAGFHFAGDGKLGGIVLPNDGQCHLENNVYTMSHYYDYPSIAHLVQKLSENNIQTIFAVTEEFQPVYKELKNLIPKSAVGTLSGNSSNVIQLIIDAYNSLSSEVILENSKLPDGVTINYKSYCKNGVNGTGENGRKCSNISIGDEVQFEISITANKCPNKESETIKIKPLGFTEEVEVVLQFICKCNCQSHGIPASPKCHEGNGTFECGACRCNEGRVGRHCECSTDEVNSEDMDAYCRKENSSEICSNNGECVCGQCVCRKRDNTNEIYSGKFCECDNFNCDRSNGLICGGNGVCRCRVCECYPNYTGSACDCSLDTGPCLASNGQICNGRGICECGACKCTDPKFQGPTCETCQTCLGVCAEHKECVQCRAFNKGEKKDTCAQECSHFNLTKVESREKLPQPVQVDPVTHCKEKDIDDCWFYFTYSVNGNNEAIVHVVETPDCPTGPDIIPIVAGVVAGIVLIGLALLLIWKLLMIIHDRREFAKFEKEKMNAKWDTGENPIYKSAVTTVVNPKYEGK

B1: IIA1: parent mouse IgG1 class anti-α5β1 antibody shown to inhibit α5β1 integrin binding to fibronectin (antibody, V domains shown)
VH: MAVLGLLLCLVTFPSCVLSQVQLKESGPGLVAPSQSLSITCTISGFSLTDYGVHWVRQPPGKGLEWLVVIWSDGSSTYNSALKSRMTIRKDNSKSQVFLIMNSLQTDDSAMYYCARHGTYYGMTTTGDALDYWGQGTSVTVSS
VL: MDFQVQIFSFLLISASVIMSRGQIVLTQSPAIMSASLGERVTMTCTASSSVSSNYLHWYQQKPGSAPNLWIYSTSNLASGVPARFSGSGSGTSYSLTISSMEAEDAATYYCHQYLRSPPTFGGGTKLEIK
modifications: mus muscalus
recognition of mouse α5β1 integrin (mouse α5β1 integrin): does not recognize
NW231 xenograft tumor growth (NW231 cells): reproducibly inhibit
VX2 xenograft tumor growth versus control IgG (VX2 cancer cells): did not correlate with a decreased rate of VX2 tumor growth
LOX xenograft tumor growth (LOX cells): reproducibly inhibit

B2: M200: chimeric IgG4 anti-α5β1 antibody derived from IIA1; generic name volociximab (antibody, V domains shown)
VH: MAVLGLLLCLVTFPSCVLSQVQLKESGPGLVAPSQSLSITCTISGFSLTDYGVHWVRQPPGKGLEWLVVIWSDGSSTYNSALKSRMTIRKDNSKSQVFLIMNSLQTDDSAMYYCARHGTYYGMTTTGDALDYWGQGTSVTVSS
VL: MDFQVQIFSFLLISASVIMSRGQIVLTQSPAIMSASLGERVTMTCTASSSVSSNYLHWYQQKPGSAPNLWIYSTSNLASGVPARFSGSGSGTSYSLTISSMEAEDAATYYCHQYLRSPPTFGGGTKLEIKDMSVDMSV
modifications: chimeric antibody
notes: chimeric IgG4 anti-α5β1 antibody derived from IIA1; generic name volociximab
recognition of mouse α5β1 integrin (mouse α5β1 integrin): does not cross react
NW231 xenograft tumor growth (NW231 cells): not found to reproducibly inhibit tumor growth
apoptosis of activated endothelial cells in vitro [1]: induce apoptosis
% Growth Inhibition +Serum (NW231; 10% FBS, 4-day assay): 35%
% Growth Inhibition −Serum (NW231; [5]): 10^2%
VX2 xenograft tumor growth versus control IgG (VX2 cancer cells): did not correlate with a decreased rate of VX2 tumor growth
in vivo anti-angiogenic efficacy (angiogenesis): in vivo anti-angiogenic efficacy
mean peak level (serum) ([2]; 50 mg/kg after 4 weekly doses): 1862 µg/mL
range of peak level (serum) ([2]; 50 mg/kg after 4 weekly doses): 1000 to 2606 µg/mL
toxicity ([2]; at peak serum concentrations after 50 mg/kg, 4 weekly doses): no toxicity
Estimated peak serum level (Cmax) in humans ([3]; 0.5 mg/kg, dose number 1): 11 µg/mL
Estimated trough serum level (Cmin) in humans ([3]; 0.5 mg/kg, dose number 1): 1.5 µg/mL
Estimated peak serum level (Cmax) in humans ([3]; 0.5 mg/kg, dose number 2): 11 µg/mL
Estimated trough serum level (Cmin) in humans ([3]; 0.5 mg/kg, dose number 2): 1.6 µg/mL
Estimated peak serum level (Cmax) in humans ([3]; 0.5 mg/kg, dose number 3): 12 µg/mL
Estimated trough serum level (Cmin) in humans ([3]; 0.5 mg/kg, dose number 3): 2 µg/mL
Estimated peak serum level (Cmax) in humans ([3]; 0.5 mg/kg, dose number 4): 13 µg/mL
Estimated trough serum level (Cmin) in humans ([3]; 0.5 mg/kg, dose number 4): 2.1 µg/mL
Estimated peak serum level (Cmax) in humans ([3]; 0.5 mg/kg, dose number 5): 13 µg/mL
Estimated trough serum level (Cmin) in humans ([3]; 0.5 mg/kg, dose number 5): 2.2 µg/mL
Estimated peak serum level (Cmax) in humans ([3]; 1.0 mg/kg, dose number 1): 22 µg/mL
Estimated trough serum level (Cmin) in humans ([3]; 1.0 mg/kg, dose number 1): 3 µg/mL
Estimated peak serum level (Cmax) in humans ([3]; 1.0 mg/kg, dose number 2): 22 µg/mL
Estimated trough serum level (Cmin) in humans ([3]; 1.0 mg/kg, dose number 2): 3 µg/mL
Estimated peak serum level (Cmax) in humans ([3]; 1.0 mg/kg, dose number 3): 25 µg/mL
Estimated trough serum level (Cmin) in humans ([3]; 1.0 mg/kg, dose number 3): 4 µg/mL
Estimated peak serum level (Cmax) in humans ([3]; 1.0 mg/kg, dose number 4): 26 µg/mL
Estimated trough serum level (Cmin) in humans ([3]; 1.0 mg/kg, dose number 4): 5 µg/mL
Estimated peak serum level (Cmax) in humans ([3]; 1.0 mg/kg, dose number 5): 26 µg/mL
Estimated trough serum level (Cmin) in humans ([3]; 1.0 mg/kg, dose number 5): 5 µg/mL
Estimated peak serum level (Cmax) in humans ([3]; 2.5 mg/kg, dose number 1): 54 µg/mL
Estimated trough serum level (Cmin) in humans ([3]; 2.5 mg/kg, dose number 1): 9 µg/mL
Estimated peak serum level (Cmax) in humans ([3]; 2.5 mg/kg, dose number 2): 57 µg/mL
Estimated trough serum level (Cmin) in humans ([3]; 2.5 mg/kg, dose number 2): 10 µg/mL
Estimated peak serum level (Cmax) in humans ([3]; 2.5 mg/kg, dose number 3): 64 µg/mL
Estimated trough serum level (Cmin) in humans ([3]; 2.5 mg/kg, dose number 3): 13 µg/mL
Estimated peak serum level (Cmax) in humans ([3]; 2.5 mg/kg, dose number 4): 67 µg/mL
Estimated trough serum level (Cmin) in humans ([3]; 2.5 mg/kg, dose number 4): 14 µg/mL
Estimated peak serum level (Cmax) in humans ([3]; 2.5 mg/kg, dose number 5): 68 µg/mL
Estimated trough serum level (Cmin) in humans ([3]; 2.5 mg/kg, dose number 5): 15 µg/mL
Estimated peak serum level (Cmax) in humans ([3]; 5.0 mg/kg, dose number 1): 108 µg/mL
Estimated trough serum level (Cmin) in humans ([3]; 5.0 mg/kg, dose number 1): 20 µg/mL
Estimated peak serum level (Cmax) in humans ([3]; 5.0 mg/kg, dose number 2): 114 µg/mL
Estimated trough serum level (Cmin) in humans ([3]; 5.0 mg/kg, dose number 2): 24 µg/mL
Estimated peak serum level (Cmax) in humans ([3]; 5.0 mg/kg, dose number 3): 132 µg/mL
Estimated trough serum level (Cmin) in humans ([3]; 5.0 mg/kg, dose number 3): 33 µg/mL
Estimated peak serum level (Cmax) in humans ([3]; 5.0 mg/kg, dose number 4): 141 µg/mL
Estimated trough serum level (Cmin) in humans ([3]; 5.0 mg/kg, dose number 4): 39 µg/mL
Estimated peak serum level (Cmax) in humans ([3]; 5.0 mg/kg, dose number 5): 147 µg/mL
Estimated trough serum level (Cmin) in humans ([3]; 5.0 mg/kg, dose number 5): 43 µg/mL
Estimated peak serum level (Cmax) in humans ([3]; 10.0 mg/kg, dose number 1): 216 µg/mL
Estimated trough serum level (Cmin) in humans ([3]; 10.0 mg/kg, dose number 1): 51 µg/mL
Estimated peak serum level (Cmax) in humans ([3]; 10.0 mg/kg, dose number 2): 236 µg/mL
Estimated trough serum level (Cmin) in humans ([3]; 10.0 mg/kg, dose number 2): 66 µg/mL
Estimated peak serum level (Cmax) in humans ([3]; 10.0 mg/kg, dose number 3): 282 µg/mL
Estimated trough serum level (Cmin) in humans ([3]; 10.0 mg/kg, dose number 3): 101 µg/mL
Estimated peak serum level (Cmax) in humans ([3]; 10.0 mg/kg, dose number 4): 317 µg/mL
Estimated trough serum level (Cmin) in humans ([3]; 10.0 mg/kg, dose number 4): 131 µg/mL
Estimated peak serum level (Cmax) in humans ([3]; 10.0 mg/kg, dose number 5): 346 µg/mL
Estimated trough serum level (Cmin) in humans ([3]; 10.0 mg/kg, dose number 5): 156 µg/mL
predicted terminal half-life in humans ([3]; 15.0 mg/kg): about 13 days
Estimated Cmax range (54-140%) in humans ([3]; 15.0 mg/kg, dose number 1): 175 to 453 µg/mL
Estimated peak serum level (Cmax) in humans ([3]; 15.0 mg/kg, dose number 1): 324 µg/mL
Estimated trough serum level (Cmin) in humans ([3]; 15.0 mg/kg, dose number 1): 91 µg/mL
Estimated Cmax range (54-140%) in humans ([3]; 15.0 mg/kg, dose number 2): 197 to 512 µg/mL
Estimated peak serum level (Cmax) in humans ([3]; 15.0 mg/kg, dose number 2): 366 µg/mL
Estimated trough serum level (Cmin) in humans ([3]; 15.0 mg/kg, dose number 2): 126 µg/mL
Estimated Cmax range (54-140%) in humans ([3]; 15.0 mg/kg, dose number 3): 243 to 629 µg/mL
Estimated peak serum level (Cmax) in humans ([3]; 15.0 mg/kg, dose number 3): 450 µg/mL
Estimated trough serum level (Cmin) in humans ([3]; 15.0 mg/kg, dose number 3): 200 µg/mL
Estimated Cmax range (54-140%) in humans ([3]; 15.0 mg/kg, dose number 4): 283 to 733 µg/mL
Estimated peak serum level (Cmax) in humans ([3]; 15.0 mg/kg, dose number 4): 524 µg/mL
Estimated trough serum level (Cmin) in humans ([3]; 15.0 mg/kg, dose number 4): 268 µg/mL
Estimated peak serum level (Cmax) in humans ([3]; 15.0 mg/kg, dose number 5): 592 µg/mL
Estimated trough serum level (Cmin) in humans ([3]; 15.0 mg/kg, dose number 5): 332 µg/mL
predicted time to steady state concentration ([3]; all doses <10.0 mg/kg): ≤ 4 weeks
predicted time to steady state concentration ([3]; doses ≧10.0 mg/kg): ≤ 5 weeks
mean trough level ([4]; 10 mg/kg, two weeks after the 1st dose): 82 µg/mL
pharmacokinetics, linearity ([4]; slower clearance at the higher concentrations): non-linear pharmacokinetics
LOX xenograft tumor growth (LOX cells): not found to reproducibly inhibit tumor growth
% Growth Inhibition +Serum (LOX; 10% FBS, 4-day assay): 35%
% Growth Inhibition −Serum (LOX; [5]): 40^2%
